1 protein from article PMC5529448 can be followed below.

For this data set, the target named is P02689. As to the kind of experiment: dynamic light scattering; triplicates at +25 °C; 0.6–0.9 mg/ml protein; 0.3 M NaCl, 20 mM HEPES pH 7.5; proteins stored on ice for 24 h after SEC. The conditions noted are these: other: dynamic light scattering.

B1: human myelin protein P2 T51P (protein)
chain: MSNKFLGTWKLVSSENFDDYMKALGVGLATRKLGNLAKPTVIISKKGDIIPIRTESTFKNTEISFKLGQEFEETTADNRKTKSIVTLQRGSLNQVQRWDGKETTIKRKLVNGKMVAECKMKGVVCTRIYEKV
B1: the Monomeric (%) came out at 98.3%.
